Reference: paper PMC11041675

What was measured:
Test in all cases: EMSA
[1] = target: nsp8 (SARS-CoV-2, UniProt P0DTD1 3943-4140)
[2] = target: nsp7;nsp8 (SARS-CoV-2;SARS-CoV-2, UniProt P0DTD1;P0DTD1 3860-3942;3943-4140, |)
[3] = target: nsp7 (SARS-CoV-2, UniProt P0DTD1 3860-3942)

Row | Binder | binding result [1] | Kd [2] | binding result [3]
1 | SLP4 (structured_RNA) RNA: GGGAUUCUCGUAACUACAUAGCACAAGUAGAUGUAGUUAACUUUAAUCUCACAGCAAUGUGAUUUUAAUAGCUUCUUAGGAGAAU | binds | 2.4 µM | no binding
2 | PKP4 (structured_RNA) RNA: GGGCUUGUGCAGAAUGAAUUCUCGUAACUACAUAGCACAAGUAGAUGUAGUUAACUUUAAUCUCACAGCAAUGUGAUUUUAAUAGCUUCUUAGGAGAAU | binds | 2.6 µM | no binding
3 | rd85 (structured_RNA) RNA: GGGAAUAUACUAAUAUUGGUUGAGUUGUCCAAGCUCUAAUUGUGUCCUUUAGCUGUACGGAUUAUAAAAGUAAUAGGGAUGUGUU |  | 3.7 µM | 
4 | GGAUUCUCGUAACUACAUAGCACAAGUAGAUGUAGUUACUUAGGAGAAU (structured_RNA) [SL] | binds | 5.7 µM | no binding
5 | PK (structured_RNA) RNA: GGGUCUUGUGCAGAAUGAAUUCUCGUAACUACAUAGCACAAGUAGAUGUAGUUA | binds | 5.3 µM | no binding
